Laboratory results as given in patent US20250122303A1, “TREATMENT AND PREVENTION OF CANCER USING HER3 ANTIGEN-BINDING MOLECULES” (Hummingbird Bioscience Pte. Ltd., priority 2021, published 2025).

What was measured:
hHER3 = hHER3 (Homo sapiens, UniProt P21860); test: BLI binding to HER3 in absence of NRG1 ('closed' conformation)
Experimental: (§1) In further experiments, anti-HER3 antibodies were analysed in order to determine the affinity of binding to human HER3 in the context of a human HER3:human NRG1 complex (that is, HER3 provided in the ligand-bound, ‘open’ conformation), as compared to the affinity of binding to human HER3 in the absence of NRG1 complex (that is, HER3 provided in the unbound, ‘closed’ conformation).
(§2) Binding of anti-HER3 antibodies to human HER3 was evaluated by BLI. Briefly, anti-Human IgG Capture (AHC) sensors (ForteBio) were loaded with anti-HER3 IgG antibodies (25 nM). Kinetic measurements were performed in absence or presence of NRG1. NRG1 was used at 1:1 molar ratio with HER3 wherein the complex was allowed to form at RT for 2 h. His-tagged human HER3 or HER3-NRG1 complexes were loaded to antibody coated AHC sensors at different concentrations for 120 s, followed by a 120 s dissociation time. All measurements were performed at 25° C. with agitation at 1000 rpm. Sensorgrams were referenced for buffer effects and then analyzed using the Octet QK384-software (ForteBio). Kinetic responses were globally fitted using a one-site binding model to obtain values for association (Kon), dissociation (Koff) rate constants and the equilibrium dissociation constant (KD).

[1] = system: HEK293 HER3, HCC95, N87 and OVCAR8 cells; test: Antibody internalisation, pHrodo imaging; assay type: cell-based, human; conditions: 24 hours
Experimental: Briefly, 100,000 HEK293 cells engineered to express HER3, HCC95, N87 or OVCAR8 cells were seeded in wells of 96-well tissue culture plates and cultured overnight at 37° C. in 5% CO2. […] The cells in culture were imaged every 30 min for 24 hours, in 4 different fields of each well. The maximum signal intensity in the FITC channel of each field was quantified at 24 hours.

[2] = clinical, literature, cited from earlier work
[3] = target: T1, human HER3 (HEK293 HER3 O/E cells) (Homo sapiens, UniProt P21860); test: Cell surface antigen-binding by flow cytometry
T1 construct: expressed in transfected cells; host or cells: HEK293
Experimental: The cells were washed thrice with FACS buffer (PBS with 5 mM EDTA and 0.5% BSA) and resuspended in FITC-conjugated anti-FC antibody (Invitrogen, USA) for 40 min at 2-8° C. Cells were washed again and resuspended in 200 μL of FACS flow buffer (PBS with 5 mM EDTA) for flow cytometric analysis using MACSQuant 10 (Miltenyi Biotec, Germany). After acquisition, all raw data were analyzed using Flowlogic software. Cells were gated using forward and side scatter profile percentage of positive cells was determined for native and overexpressing cell populations.
The cells were washed with buffer (PBS with 2 mM EDTA and 0.5% BSA) and resuspended in FITC-conjugated anti-FC antibody (Invitrogen, USA) at 10 μg/ml for 20 min at 4° C. Cells were washed again and resuspended in 200 μL of FACS flow buffer (PBS with 5 mM EDTA) for flow cytometric analysis using MACSQuant 10 (Miltenyi Biotec, Germany). Unstained WT and transfected HEK293 cells were included in the analysis as negative controls. After acquisition, all raw data were analyzed using Flowlogic software. Cells were gated using forward and side scatter profile percentage of positive cells was determined for native and overexpressing cell populations.

[4] = cited from earlier work
[5] = target: human HER3:human NRG1 complex (Homo sapiens, UniProt P21860); test: BLI binding to HER3-NRG1 complex ('open' conformation); conditions: presence of NRG1 (1:1 molar ratio)
Experimental: as §1, §2

| Substance | affinity of binding to human HER3 (hHER3) | internalization ([1]; HEK293 cells overexpressing HER3, 120 nM) | internalization ([1]; OvCar8 cells, 120 nM) | Dose where Saturating PK was observed [2] | T½ (terminal half life) [2] | Cmax (μg/ml) normalised to per mg/kg dosed [2] | extent of binding to human HER3-expressing cells ([3]; 10 μg/ml antibody) | extent of binding to human HER3-expressing cells ([3]; 20 μg/ml antibody) | gastrointestinal toxicity DLTs ([4]; human, in vivo) | hypokalaemia and hypomagnesemia DLTs ([4]; in the presence of diarrhoea) | affinity of binding to human HER3 [5] |
| --- | --- | --- | --- | --- | --- | --- | --- | --- | --- | --- | --- |
| LJM716: anti-HER3 antibody binding domains II and IV, locks HER3 in inactive conformation (Garner et al.) [reference compound] | subpicomolar affinity | significant internalization | Modest to moderate internalization | 10 to 40 mg/kg | 9 to 14 days | 19 to 22 µg/mL | bind to human HER3-expressing cells to a similar extent | bind to human HER3-expressing cells to a similar extent | DLTs were reported | DLTs were reported | dramatically reduced |
| RG7116 |  |  |  | 400 to 2000 mg | 9 to 12 days | 24 to 41 µg/mL |  |  |  |  |  |
